Here are results for three molecules from paper PMC4201289 (Genes & Development, 2014).

Test [1] addresses Mcm2–7 hexamer (minichromosome maintenance proteins 2–7) (S. cerevisiae) (UniProt P29469). The test is described as follows: cryo-EM structure.
Test [2] deals with T1, Mcm4 (subunit in the Mcm2–7 double hexamer) (S. cerevisiae, UniProt P30665 1-933).
T1 sequence: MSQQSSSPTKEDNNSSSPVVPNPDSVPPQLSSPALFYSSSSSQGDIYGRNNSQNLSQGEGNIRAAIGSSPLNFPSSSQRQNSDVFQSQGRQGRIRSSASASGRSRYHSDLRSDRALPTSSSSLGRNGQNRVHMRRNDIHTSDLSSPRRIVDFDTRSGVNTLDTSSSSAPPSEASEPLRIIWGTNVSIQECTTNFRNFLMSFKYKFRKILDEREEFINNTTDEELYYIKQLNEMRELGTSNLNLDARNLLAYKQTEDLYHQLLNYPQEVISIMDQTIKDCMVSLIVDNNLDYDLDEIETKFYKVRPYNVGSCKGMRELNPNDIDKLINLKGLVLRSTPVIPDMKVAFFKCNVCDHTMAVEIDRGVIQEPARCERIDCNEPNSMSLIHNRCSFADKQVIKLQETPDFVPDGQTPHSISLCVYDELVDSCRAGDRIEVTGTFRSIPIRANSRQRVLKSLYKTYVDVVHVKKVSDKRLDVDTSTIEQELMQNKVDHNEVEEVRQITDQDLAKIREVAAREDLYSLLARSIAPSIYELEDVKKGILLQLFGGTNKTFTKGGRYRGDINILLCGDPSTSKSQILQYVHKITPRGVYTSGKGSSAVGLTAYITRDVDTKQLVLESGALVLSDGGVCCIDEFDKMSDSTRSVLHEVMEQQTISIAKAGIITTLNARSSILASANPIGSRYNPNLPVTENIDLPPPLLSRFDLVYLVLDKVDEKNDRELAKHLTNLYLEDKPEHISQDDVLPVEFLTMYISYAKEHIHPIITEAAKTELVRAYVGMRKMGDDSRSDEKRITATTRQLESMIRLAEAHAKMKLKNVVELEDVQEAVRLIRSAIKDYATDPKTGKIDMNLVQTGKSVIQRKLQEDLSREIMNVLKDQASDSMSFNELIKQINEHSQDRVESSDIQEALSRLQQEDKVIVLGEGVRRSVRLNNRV
The test is described as follows: negative stain EM, 3D reconstruction.

For “Mcm2–7 hexamer (minichromosome maintenance proteins 2–7) (from UniProt P29469;P24279;P30665;P29496;P53091;P38132) (complex)”, the stoichiometry N in test [1] is 2.

B1: Mcm2 (subunit in the Mcm2–7 double hexamer) (natural protein)
chain: MSDNRRRRREEDDSDSENELPPSSPQQHFRGGMNPVSSPIGSPDMINPEGDDNEVDDVPDIDEVEEQMNEVDLMDDNMYEDYAADHNRDRYDPDQVDDREQQELSLSERRRIDAQLNERDRLLRNVAYIDDEDEEQEGAAQLDEMGLPVQRRRRRRQYEDLENSDDDLLSDMDIDPLREELTLESLSNVKANSYSEWITQPNVSRTIARELKSFLLEYTDETGRSVYGARIRTLGEMNSESLEVNYRHLAESKAILALFLAKCPEEMLKIFDLVAMEATELHYPDYARIHSEIHVRISDFPTIYSLRELRESNLSSLVRVTGVVTRRTGVFPQLKYVKFNCLKCGSILGPFFQDSNEEIRISFCTNCKSKGPFRVNGEKTVYRNYQRVTLQEAPGTVPPGRLPRHREVILLADLVDVSKPGEEVEVTGIYKNNYDGNLNAKNGFPVFATIIEANSIKRREGNTANEGEEGLDVFSWTEEEEREFRKISRDRGIIDKIISSMAPSIYGHRDIKTAVACSLFGGVPKNVNGKHSIRGDINVLLLGDPGTAKSQILKYVEKTAHRAVFATGQGASAVGLTASVRKDPITKEWTLEGGALVLADKGVCLIDEFDKMNDQDRTSIHEAMEQQSISISKAGIVTTLQARCSIIAAANPNGGRYNSTLPLAQNVSLTEPILSRFDILCVVRDLVDEEADERLATFVVDSHVRSHPENDEDREGEELKNNGESAIEQGEDEINEQLNARQRRLQRQRKKEEEISPIPQELLMKYIHYARTKIYPKLHQMDMDKVSRVYADLRRESISTGSFPITVRHLESILRIAESFAKMRLSEFVSSYDLDRAIKVVVDSFVDAQKVSVRRQLRRSFAIYTLGH
Consider B1, for which the binding result in test [2] is on record as “binds”.

B2: Mcm5 (subunit in the Mcm2–7 double hexamer) (natural protein)
chain: MSFDRPEIYSAPVLQGESPNDDDNTEIIKSFKNFILEFRLDSQFIYRDQLRNNILVKNYSLTVNMEHLIGYNEDIYKKLSDEPSDIIPLFETAITQVAKRISILSRAQSANNNDKDPENTSMDTDSLLLNSLPTFQLILNSNANQIPLRDLDSEHVSKIVRLSGIIISTSVLSSRATYLSIMCRNCRHTTSITINNFNSITGNTVSLPRSCLSTIESESSMANESNIGDESTKKNCGPDPYIIIHESSKFIDQQFLKLQEIPELVPVGEMPRNLTMTCDRYLTNKVIPGTRVTIVGIYSIYNSKNGAGSGRSGGGNGGSGVAIRTPYIKILGIQSDVETSSIWNSVTMFTEEEEEEFLQLSRNPKLYEILTNSIAPSIFGNEDIKKAIVCLLMGGSKKILPDGMRLRGDINVLLLGDPGTAKSQLLKFVEKVSPIAVYTSGKGSSAAGLTASVQRDPMTREFYLEGGAMVLADGGVVCIDEFDKMRDEDRVAIHEAMEQQTISIAKAGITTVLNSRTSVLAAANPIYGRYDDLKSPGDNIDFQTTILSRFDMIFIVKDDHNEERDISIANHVINIHTGNANAMQNQQEENGSEISIEKMKRYITYCRLKCAPRLSPQAAEKLSSNFVTIRKQLLINELESTERSSIPITIRQLEAIIRITESLAKLELSPIAQERHVDEAIRLFQASTMDAASQDPIGGLNQASGTSLSEIRRFEQELKRRLPIGWSTSYQTLRREFVDTHRFSQLALDKALYALEKHETIQLRHQGQNIYRSGV
In the case of B2, the binding result in test [2] was “binds”.

What is called stoichiometry N is a count of units in the complex or per binding partner.
